The results in this text go back to patent US20070196883.

Series [1] deals with GST-PIF (glutathione-S-transferase fusion of the C-terminal 77 amino acids of PRK2).
Series [2] deals with GST-PIF mutant Asp978 to Ala.
The target of series [3] is GST-PIF mutant Asp978 to Ser.
The target of series [4] is GST-PIF mutant F977 to Ala.
Series [5] deals with GST-PIF mutant F974 to Ala.
For series [6], the target named is GST-PIF mutant Y979 to Ala.
The target of the next series is T1, D978A-Region B peptide.
T1 chain: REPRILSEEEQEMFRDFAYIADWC

The target of series [7] is T2, Region B peptide (24 residue synthetic peptide corresponding to Region B of PIF).
T2 chain: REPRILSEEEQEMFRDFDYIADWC

Chain of GST-PIF mutant F974 to Ala (chain, as listed by the source mutant): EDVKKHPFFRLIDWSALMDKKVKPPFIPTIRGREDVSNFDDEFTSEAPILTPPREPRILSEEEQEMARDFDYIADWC
Chain of GST-PIF mutant Y979 to Ala (chain, as listed by the source mutant): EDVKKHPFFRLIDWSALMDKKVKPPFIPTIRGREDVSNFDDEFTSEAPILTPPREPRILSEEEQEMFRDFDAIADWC
Chain of GST-PIF mutant F977 to Ala (chain, as listed by the source mutant): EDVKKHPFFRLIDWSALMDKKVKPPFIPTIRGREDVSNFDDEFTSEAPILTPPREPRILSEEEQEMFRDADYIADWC
Chain of GST-PIF mutant Asp978 to Ser (chain, as listed by the source mutant): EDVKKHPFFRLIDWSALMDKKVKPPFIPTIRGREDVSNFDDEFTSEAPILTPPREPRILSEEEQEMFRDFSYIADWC

B1: endogenous PDK1 of 293 cells (protein)
chain: MARTTSQLYDAVPIQSSVVLCSCPSPSMVRTQTESSTPPGIPGGSRQGPAMDGTAAEPRPGAGSLQHAQPPPQPRKKRPEDFKFGKILGEGSFSTVVLARELATSREYAIKILEKRHIIKENKVPYVTRERDVMSRLDHPFFVKLYFTFQDDEKLYFGLSYAKNGELLKYIRKIGSFDETCTRFYTAEIVSALEYLHGKGIIHRDLKPENILLNEDMHIQITDFGTAKVLSPESKQARANSFVGTAQYVSPELLTEKSACKSSDLWALGCIIYQLVAGLPPFRAGNEYLIFQKIIKLEYDFPEKFFPKARDLVEKLLVLDATKRLGCEEMEGYGPLKAHPFFESVTWENLHQQTPPKLTAYLPAMSEDDEDCYGNYDNLLSQFGCMQVSSSSSSHSLSASDTGLPQRSGSNIEQYIHDLDSNSFELDLQFSEDEKRLLLEKQAGGNPWHQFVENNLILKMGPVDKRKGLFARRRQLLLTEGPHLYYVDPVNKVLKGEIPWSQELRPEAKNFKTFFVHTPNRTYYLMDPSGNAHKWCRKIQEVWRQRYQSHPDAAVQ
In the case of B1, the “activation of GST-S473D-PKBα (Thr308 phosphorylation) by PDK1 associated with GST-PIF (0.5 µg)” value in series [1] is recorded as “greatly activated a GST-A473D-PKBα mutant”. In addition, the “phosphorylation of PKBα at Ser473 (P-473 immunoblot)” value in series [2], in series [3], in series [4], in series [5] and in series [6] was “prevented the phosphorylation of PKBα at Ser473” each time.

B2: His-PDK1 (Myc-PDK1 with an N-terminal hexahistidine sequence, from Sf21 insect cells) (protein)
chain: MARTTSQLYDAVPIQSSVVLCSCPSPSMVRTQTESSTPPGIPGGSRQGPAMDGTAAEPRPGAGSLQHAQPPPQPRKKRPEDFKFGKILGEGSFSTVVLARELATSREYAIKILEKRHIIKENKVPYVTRERDVMSRLDHPFFVKLYFTFQDDEKLYFGLSYAKNGELLKYIRKIGSFDETCTRFYTAEIVSALEYLHGKGIIHRDLKPENILLNEDMHIQITDFGTAKVLSPESKQARANSFVGTAQYVSPELLTEKSACKSSDLWALGCIIYQLVAGLPPFRAGNEYLIFQKIIKLEYDFPEKFFPKARDLVEKLLVLDATKRLGCEEMEGYGPLKAHPFFESVTWENLHQQTPPKLTAYLPAMSEDDEDCYGNYDNLLSQFGCMQVSSSSSSHSLSASDTGLPQRSGSNIEQYIHDLDSNSFELDLQFSEDEKRLLLEKQAGGNPWHQFVENNLILKMGPVDKRKGLFARRRQLLLTEGPHLYYVDPVNKVLKGEIPWSQELRPEAKNFKTFFVHTPNRTYYLMDPSGNAHKWCRKIQEVWRQRYQSHPDAAVQ
For B2, the “phosphorylation of PKBα at Ser473 (P-473 immunoblot, 32P peptide mapping)” value with D978A-Region B peptide is recorded as “far less effective at inducing this alteration in the specificity of PDK1”.

B3: wild type GST-PDK1 (protein)
chain: MARTTSQLYDAVPIQSSVVLCSCPSPSMVRTQTESSTPPGIPGGSRQGPAMDGTAAEPRPGAGSLQHAQPPPQPRKKRPEDFKFGKILGEGSFSTVVLARELATSREYAIKILEKRHIIKENKVPYVTRERDVMSRLDHPFFVKLYFTFQDDEKLYFGLSYAKNGELLKYIRKIGSFDETCTRFYTAEIVSALEYLHGKGIIHRDLKPENILLNEDMHIQITDFGTAKVLSPESKQARANSFVGTAQYVSPELLTEKSACKSSDLWALGCIIYQLVAGLPPFRAGNEYLIFQKIIKLEYDFPEKFFPKARDLVEKLLVLDATKRLGCEEMEGYGPLKAHPFFESVTWENLHQQTPPKLTAYLPAMSEDDEDCYGNYDNLLSQFGCMQVSSSSSSHSLSASDTGLPQRSGSNIEQYIHDLDSNSFELDLQFSEDEKRLLLEKQAGGNPWHQFVENNLILKMGPVDKRKGLFARRRQLLLTEGPHLYYVDPVNKVLKGEIPWSQELRPEAKNFKTFFVHTPNRTYYLMDPSGNAHKWCRKIQEVWRQRYQSHPDAAVQ
In the case of B3, the “phosphorylation of PKBα at Ser473” value in series [7] is recorded as “The region B peptide converts the wild type GST-PDK1, but not the kinase dead GST-PDK1, into a kinase which can phosphorylate Ser473 (data not shown)”.
